Data: patent US20130131322A1 (MEDICAL AND BIOLOGICAL LABORATORIES, published 2013)

T1: transmembrane TGF-α (human TGF-α positions 1 to 160) expressed on 293T cells (human, UniProt P01135 24-160)
T1 construct: also called TGF-α/293T; TGFα/293T
T1 sequence: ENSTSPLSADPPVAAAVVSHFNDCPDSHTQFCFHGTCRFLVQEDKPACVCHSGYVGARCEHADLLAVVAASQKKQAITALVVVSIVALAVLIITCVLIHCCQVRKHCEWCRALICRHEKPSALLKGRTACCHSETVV

B1: MBL016-8 (antibody, mouse IgG2a, V domains shown)
VH: VQLQQSGAELVRPGASVKLSCTASGFNIKDDYMYWVKQRPEQGLEWIGRIDPANGNTKYAPKFQDKATITADTSSNTAYLHLSSLTSEDTAVFYCAYRRAYWGQGTLVTVSA
VL: DIQMTQSPSSLSASLGGKVTITCKASQDINKYIAWYQHKPGKGPRLFIHYTSKLQPGIPSRFSGSGSGRDYSFSISNLEPEDIATYYCLQYDNLLYTFGGGTKLEIK
B2: humanized chimeric anti-TGF-α antibody of MBL016-8 (antibody, human IgG1, V domains shown)
VH: VQLQQSGAELVRPGASVKLSCTASGFNIKDDYMYWVKQRPEQGLEWIGRIDPANGNTKYAPKFQDKATITADTSSNTAYLHLSSLTSEDTAVFYCAYRRAYWGQGTLVTVSA
VL: DIQMTQSPSSLSASLGGKVTITCKASQDINKYIAWYQHKPGKGPRLFIHYTSKLQPGIPSRFSGSGSGRDYSFSISNLEPEDIATYYCLQYDNLLYTFGGGTKLEIK
notes: tested as 293T culture supernatant; also called recombinant antibody MBL016-8
B3: MBL009-15 (antibody, mouse IgG1, V domains shown)
VH: VQLQESGPGLVKPSQSLSLTCTVTGYSITSDYAWNWIRQFPGNKLEWMGYISYSGSTSYNPSLKSRISITRDTSKNQFFLQLNSVTTEDTATYYCARGGITRFAYWGQGTLVTVSA
VL: DIQMTQTTSSLSASLGDRLTISCRASQDIRNYLNWYQQKPDGTVKLLIYYTSRLHSGVPSRFSGSGSGTDYSLTISNLEQEDIATYFCQQGNTLPWTFGGGTKLEIK
B4: humanized chimeric anti-TGF-α antibody of MBL009-15 (antibody, human IgG1, V domains shown)
VH: VQLQESGPGLVKPSQSLSLTCTVTGYSITSDYAWNWIRQFPGNKLEWMGYISYSGSTSYNPSLKSRISITRDTSKNQFFLQLNSVTTEDTATYYCARGGITRFAYWGQGTLVTVSA
VL: DIQMTQTTSSLSASLGDRLTISCRASQDIRNYLNWYQQKPDGTVKLLIYYTSRLHSGVPSRFSGSGSGTDYSLTISNLEQEDIATYFCQQGNTLPWTFGGGTKLEIK
notes: tested as 293T culture supernatant; also called recombinant antibody MBL009-15
B5: MBL018-1 (antibody, mouse IgG1, V domains shown)
VH: EVQLQQSGTVLTRPGASVKMSCKASGYTFTNFWIHWVKQRPGQGLDWIGAIYPGNTNTDYNQKFQGKAKLTAVSSASTAYMELSSLTNEDSAVYYCTRGGAMDYWGQGTSVTVSS
VL: IVMTQTPKLLPVSAGDRVTMTCKASQSVDNSVAWYQQKPGQSPKLLIFYASNHYTGVPDRFTASGSGTDFTFTISSVQVEDLAVYFCQQHFSSPRTFGGGTKLEIR
B6: humanized chimeric anti-TGF-α antibody of MBL018-1 (antibody, human IgG1, V domains shown)
VH: EVQLQQSGTVLTRPGASVKMSCKASGYTFTNFWIHWVKQRPGQGLDWIGAIYPGNTNTDYNQKFQGKAKLTAVSSASTAYMELSSLTNEDSAVYYCTRGGAMDYWGQGTSVTVSS
VL: IVMTQTPKLLPVSAGDRVTMTCKASQSVDNSVAWYQQKPGQSPKLLIFYASNHYTGVPDRFTASGSGTDFTFTISSVQVEDLAVYFCQQHFSSPRTFGGGTKLEIR
notes: tested as 293T culture supernatant; also called recombinant antibody MBL018-1
B7: MBL144-1 (antibody, mouse IgG1, V domains shown)
VH: VQLQESGPGLAKPSQTLSLTCSVTGYSITSDYWNWIRKFPGNKLEYMGYISYSGSTYYNPSLKSRISITRDTSKNQYYLQLNSVTTEDTATYYCARSYDGICFDNWGQGTTLTVSS
VL: DILMTQSPATLSVTPGETVSLSCRASQNTYKNLHWYQQKSHGTPKLLIKYASAPISGIPSRFTGSGSGTDYTLSINSVKPEDEGIYYCLQGYSMPWTFGGGTKLEIK
B8: humanized chimeric anti-TGF-α antibody of MBL144-1 (antibody, human IgG1, V domains shown)
VH: VQLQESGPGLAKPSQTLSLTCSVTGYSITSDYWNWIRKFPGNKLEYMGYISYSGSTYYNPSLKSRISITRDTSKNQYYLQLNSVTTEDTATYYCARSYDGICFDNWGQGTTLTVSS
VL: DILMTQSPATLSVTPGETVSLSCRASQNTYKNLHWYQQKSHGTPKLLIKYASAPISGIPSRFTGSGSGTDYTLSINSVKPEDEGIYYCLQGYSMPWTFGGGTKLEIK
notes: tested as 293T culture supernatant; also called recombinant antibody MBL144-1
B9: MBL259-3 (antibody, mouse IgG2a, V domains shown)
VH: VQLQQSGAELVRPGASVKLSCTASDFNIKDDYMHWMKQRPEQGLEWIGRIDPANGNTKYAPKFQDKATMTADTSSNTAYLQFSSLTSEDTAVYYCATSWGFPYWGQGTLVTVSA
VL: DIVMTQAAPSVPVTPGESVSISCRSSKSLLHRNGNTYLYWFLQRPGQSPQLLIYRMSNLASGVPDRFSGSGSGTAFTLRISRVEAEDVGVYYCLQHLEYPYTFGSGTKLEIK
B10: humanized chimeric anti-TGF-α antibody of MBL259-3 (antibody, human IgG1, V domains shown)
VH: VQLQQSGAELVRPGASVKLSCTASDFNIKDDYMHWMKQRPEQGLEWIGRIDPANGNTKYAPKFQDKATMTADTSSNTAYLQFSSLTSEDTAVYYCATSWGFPYWGQGTLVTVSA
VL: DIVMTQAAPSVPVTPGESVSISCRSSKSLLHRNGNTYLYWFLQRPGQSPQLLIYRMSNLASGVPDRFSGSGSGTAFTLRISRVEAEDVGVYYCLQHLEYPYTFGSGTKLEIK
notes: tested as 293T culture supernatant; also called recombinant antibody MBL259-3
B11: MBL292-1 (antibody, mouse IgG1, V domains shown)
VH: VQLQQSGAELVRPGASVKLSCTASGFNIKDDYMHWMKQRPEQGLEWIGRIDPANGNTKYAPKFQDKATITADTSSNTAYLQLSSLTSEDTAVYYCSRMGLLRGYWGQGTTLTVSS
VL: IQMTQSSSSLSVSLGDRVTITCKASVHINSWLAWYQQKPGNAPRLLISGATNLKTGVPSRFSGSASGKDYTLSITSLQTEDVATYYCQQYWDTPWTFGGGTKLEIK
B12: MBL184-6 (antibody, mouse IgG1, V domains shown)
VH: EVQLQQSGAELVRPGASVKLSCTVSGFNIKDDYMHWVKQRPEQGLEWIGRIDPANGHTKYAPKFQDKATITADTSSNTAYLQFSSLTSEDTAVYYCTRMGLRRGYWGQGTTLTVSS
VL: IQMTQSSSSLSVSLGDRVTITCKASEHINSWLAWYQQKPGNAPRLLISGATNLKTGVPSRFSGSASGKDYTLNITSLQTEDVATYYCQQYWGTPWTFGGGTKLEIK
B13: humanized chimeric anti-TGF-α antibody of MBL184-6 (antibody, human IgG1, V domains shown)
VH: EVQLQQSGAELVRPGASVKLSCTVSGFNIKDDYMHWVKQRPEQGLEWIGRIDPANGHTKYAPKFQDKATITADTSSNTAYLQFSSLTSEDTAVYYCTRMGLRRGYWGQGTTLTVSS
VL: IQMTQSSSSLSVSLGDRVTITCKASEHINSWLAWYQQKPGNAPRLLISGATNLKTGVPSRFSGSASGKDYTLNITSLQTEDVATYYCQQYWGTPWTFGGGTKLEIK
notes: tested as 293T culture supernatant; also called recombinant antibody MBL184-6
B14: humanized chimeric anti-TGF-α antibody of MBL292-1 (antibody, human IgG1, V domains shown)
VH: VQLQQSGAELVRPGASVKLSCTASGFNIKDDYMHWMKQRPEQGLEWIGRIDPANGNTKYAPKFQDKATITADTSSNTAYLQLSSLTSEDTAVYYCSRMGLLRGYWGQGTTLTVSS
VL: IQMTQSSSSLSVSLGDRVTITCKASVHINSWLAWYQQKPGNAPRLLISGATNLKTGVPSRFSGSASGKDYTLSITSLQTEDVATYYCQQYWDTPWTFGGGTKLEIK
notes: tested as 293T culture supernatant; also called recombinant antibody MBL292-1
B15: humanized chimeric anti-TGF-α antibody of MBL352-34 (antibody, human IgG1, V domains shown)
VH: VQLQQSGAELVRPGASVKLSCTASGFNIKDDYMHWVKQRPEQGLEWIGRIDPANGHTKYAPKFQDKATITADTSSNTAYLQFSSLTSEDTAVYYCTRMGLRRGYWGQGTTLTVSS
VL: IQMTQSSSSLSVSLGDRVTITCKASEHINSWLAWYQQKPGNAPRLLISGATNLKTGVPSRFSGSASGKDYTLSITSLQTEDVATYYCQQYWGTPWTFGGGTKLEIK
notes: tested as 293T culture supernatant; also called recombinant antibody MBL352-34
B16: MBL352-34 (antibody, mouse IgG1, V domains shown)
VH: VQLQQSGAELVRPGASVKLSCTASGFNIKDDYMHWVKQRPEQGLEWIGRIDPANGHTKYAPKFQDKATITADTSSNTAYLQFSSLTSEDTAVYYCTRMGLRRGYWGQGTTLTVSS
VL: IQMTQSSSSLSVSLGDRVTITCKASEHINSWLAWYQQKPGNAPRLLISGATNLKTGVPSRFSGSASGKDYTLSITSLQTEDVATYYCQQYWGTPWTFGGGTKLEIK

Tests used:
[1] = molecular target: commercially-available secreted TGF-α biosynthesized by Escherichia coli (R&D systems Inc.) (human, UniProt P01135 40-89); assay: cell-based or functional assay
[2] = molecular target: T2, G79A-substituted human TGF-α expressed on 293T cells (human, UniProt P01135 24-160); assay: flow cytometry on 293T cells
T2 construct: Made from pDIG-TGF-α (positions 1 to 160); also called G79A substitution analog; G79A-substituted TGF-α
Experimental: (§1) After washed with a wash buffer twice, the cells were allowed to react with a 200-fold diluted PE-labeled anti-mouse IgG antibody (MBL CO., LTD.) at 4° C. for 60 minutes.

[3] = molecular target: T3, H74A-substituted human TGF-α expressed on 293T cells (human, UniProt P01135 24-160); assay: flow cytometry on 293T cells
T3 construct: Made from pDIG-TGF-α (positions 1 to 160); also called H74A substitution analog
Experimental: as §1

[4] = molecular target: T4, TGF-α-hFc (human, UniProt P01135 40-89); assay: solid phase ELISA, TGFα-hFc on plate
T4 construct: not shown: Fc portion of human immunoglobulin G1, fused on the C-terminal side

[5] = molecular target: T5, proTGF-α-hFc (human, UniProt P01135 24-89); assay: solid phase ELISA, proTGFα-hFc on plate
T5 construct: not shown: Fc portion of human immunoglobulin G1, fused on the C-terminal side

[6] = molecular target: T1, transmembrane TGF-α (human TGF-α …); assay: flow cytometry, culture supernatant on transmembrane TGF-α/293T

| Binder | inhibition of EGFR tyrosine phosphorylation (P-Tyr1173) in A431 cells, antibody at 10 µg/mL [1] [%] | binding result [2] | binding result [3] | OD (solid phase ELISA) [4] [OD] | OD (solid phase ELISA) [5] [OD] | binding result [6] |
| --- | --- | --- | --- | --- | --- | --- |
| B1 | ≥ 70 | no binding (tested: 5 µg/mL) | binds | 0.869 | 1.37 |  |
| B2 |  |  |  |  |  | binds |
| B3 |  | no binding (tested: 5 µg/mL) | binds | 0.879 | 1.51 |  |
| B4 |  |  |  |  |  | binds |
| B5 | ≥ 70 | no binding (tested: 5 µg/mL) | binds | 0.703 | 1.51 |  |
| B6 |  |  |  |  |  | binds |
| B7 | ≥ 70 | no binding (tested: 5 µg/mL) | binds | 0.65 | 1.42 |  |
| B8 |  |  |  |  |  | binds |
| B9 |  | no binding (tested: 5 µg/mL) | binds | 1.11 | 1.59 |  |
| B10 |  |  |  |  |  | binds |
| B11 | ≥ 70 | no binding (tested: 5 µg/mL) | binds | 1.04 | 1.45 |  |
| B12 | ≥ 70 | no binding (tested: 5 µg/mL) | binds | 0.745 | 1.4 |  |
| B13 |  |  |  |  |  | binds |
| B14 |  |  |  |  |  | binds |
| B15 |  |  |  |  |  | binds |
| B16 | ≥ 70 | no binding (tested: 5 µg/mL) | binds | 0.704 | 1.35 |  |
